One sequence from the Immune Epitope Database (IEDB) can be followed below.

Holding throughout (test): IEDB peptide-MHC binding, purified MHC/competitive/fluorescence; filed as Kd, often an IC50 or EC50 that approximates it; ≥ and ≤ were set here for values at or beyond the usual limits of such assays
Holding throughout (details): source organism: Salmonella enterica subsp. enterica serovar Typhi

For assay [1], the target named is HLA-A*01:01.
Assay [2] concerns the target HLA-A*02:01.
Assay [3] has as its target HLA-A*02:03.
Assay [4] concerns the target HLA-A*02:06.
Assay [5] addresses HLA-A*03:01.
For assay [6], the target named is HLA-A*11:01.
Assay [7] has as its target HLA-A*26:01.
Assay [8] addresses HLA-A*30:01.
Assay [9] has as its target HLA-A*31:01.
The target of assay [10] is HLA-A*69:01.
For assay [11], the target named is HLA-B*08:01.
Assay [12] has as its target HLA-B*15:01.
Assay [13] concerns the target HLA-B*15:09.
Assay [14] deals with HLA-B*15:17.
Assay [15] addresses HLA-B*27:05.
Assay [16] has as its target HLA-B*38:01.
Assay [17] addresses HLA-B*40:01.
Assay [18] deals with HLA-B*48:01.
For assay [19], the target named is HLA-B*57:01.
In assay [20] the target is HLA-B*58:01.

The term Kd denotes a measure of binding affinity in units of concentration. High values mean lower affinity, low ones higher affinity.

As for MSAIVSCRY, the equilibrium dissociation constant (Kd) in assay [1] is 4 nM; in assay [2] it was no less than 20000 nM; in assay [3] it was no less than 20000 nM; in [4] it was no less than 20000 nM; in assay [5] it was 882 nM; in assay [6], no less than 20000 nM. Moreover, the Kd in assay [7] was 235 nM; in assay [8] it was 1400 nM; in [9] it was no less than 20000 nM; in assay [10], no less than 20000 nM; in assay [11] it was no less than 20000 nM; in assay [12], 51.2 nM. Moreover, the Kd in assay [13] was no less than 20000 nM; in assay [14], 2.4 nM; in assay [15], no less than 20000 nM; in assay [16] it was no less than 20000 nM; in assay [17] it was no less than 20000 nM; in assay [18] it was no less than 20000 nM. Besides, the Kd amounted to 237 nM in assay [19] and 27.5 nM in assay [20].
